{"source": "patent US12221483", "about": "(CHINA MEDICAL UNIVERSITY HOSPITAL, dated 2025)", "binders": {"B1": {"name": "fusion protein comprising anti-CD3 single domain antibody and exosomal protein CD63 (other)", "chain": "MAVEGGMKCVKFLLYVLLLAFCACAVGLIAVGVGAQLVLSQTIIQGATPGSLLPVVIIAVGVFLFLVAFVGCCGACKENYCLMITFAIFLSLIMLVEVAAAIAGYVFRDKVMSEFNNNFRQQMENYPKNNHTASAHVQLVESGGGSVQAGGSLRLSCTVSGVIFKNEYMGWFRQAPGKEREGVAAASPGGTITYYGDSVKGRFTISRDNAKNTVYLQMNRLKPEDTAMYYCALDPSTTSWSIIRHGPSLWRYSGRGTQVTVSSGSSILDRMQADFKCCGAANYTDWEKIPSMSKNRVPDSCCINVTVGCGINFNEKAIHKEGCVEKIGGWLRKNVLVVAAAALGIAFVEVLGIVFACCLVKSIRSGYEVM", "notes": "in the SPR assay the exosomes carrying the fusion protein (1x10^11) were coated on a CM5 chip; also called anti-CD3 single domain antibody-CD63 chimeric protein; CD3ε Nb-Exo"}}, "target": "T1, recombinant CD3E protein (UniProt P07766 23-126, limits assumed)", "T1 construct": "also called CD3ε; CD3 epsilon", "T1 sequence (P07766 23-126 limits assumed)": "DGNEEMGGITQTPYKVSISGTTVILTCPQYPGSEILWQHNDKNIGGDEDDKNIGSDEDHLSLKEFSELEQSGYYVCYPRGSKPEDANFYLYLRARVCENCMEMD", "assay": "SPR (BIAcore T200); fusion protein on exosomes (1x10^11) coated on CM5 chip, recombinant CD3E protein as analyte at 700-21.9 nM; fusion protein (1×10^11) coated on CM5 chip; recombinant CD3E as analyte", "data": [{"binder": "B1", "values": [{"measurement": "Kd", "value": 2.1, "unit": "nM"}]}]}
